Reference: PMC12770985

Assays:
[1] = target: Gerd_ePriL, non-catalytic primase subunit PriL (Heimdall group) of Candidatus Gerdarchaeota archaeon B18_G1 (Candidatus Gerdarchaeota archaeon B18_G1); test: SPR; BIACORE, CM5 chip; Gerd_ePriL or Gerd_aPriL1 immobilised, Gerd_ePriS concentration gradient (methods; the legend of Figure 3 tells the reverse); 20 mM Hepes pH 7.5, 500 mM NaCl, 0.005% Tween 20, 30 uL/min, 25 °C
[2] = target: Gerd_aPriL1, non-catalytic primase subunit PriL (Loki group) of Candidatus Gerdarchaeota archaeon B18_G1 (Candidatus Gerdarchaeota archaeon B18_G1); test: as above

Kd [1]: 2.67 nM
Kd [2]: 105 nM
Substance: Gerd_ePriS, catalytic primase subunit PriS of Candidatus Gerdarchaeota archaeon B18_G1 (enzyme)
